Measured values reported in patent publication US20200276294, “Methods and Compositions for Activation of Innate Immune Responses Through RIG-I Like Receptor Signaling” (University of Washington through its Center for …, published 2020).
Positions count from the first letter of the chain named.

Key:
RIG-I (full-length) [1] = target: T1, RIG-I (full-length) (UniProt O95786 O95786:1-925); assay: EMSA; EC10 1.42 pmol RIG-I; >50% of RNA bound at 8 pmol; 10 pmol RNA, 20 mM Tris pH 8.0, 1.5 mM MgCl2, 37 C; details: stem-loops
T1 sequence: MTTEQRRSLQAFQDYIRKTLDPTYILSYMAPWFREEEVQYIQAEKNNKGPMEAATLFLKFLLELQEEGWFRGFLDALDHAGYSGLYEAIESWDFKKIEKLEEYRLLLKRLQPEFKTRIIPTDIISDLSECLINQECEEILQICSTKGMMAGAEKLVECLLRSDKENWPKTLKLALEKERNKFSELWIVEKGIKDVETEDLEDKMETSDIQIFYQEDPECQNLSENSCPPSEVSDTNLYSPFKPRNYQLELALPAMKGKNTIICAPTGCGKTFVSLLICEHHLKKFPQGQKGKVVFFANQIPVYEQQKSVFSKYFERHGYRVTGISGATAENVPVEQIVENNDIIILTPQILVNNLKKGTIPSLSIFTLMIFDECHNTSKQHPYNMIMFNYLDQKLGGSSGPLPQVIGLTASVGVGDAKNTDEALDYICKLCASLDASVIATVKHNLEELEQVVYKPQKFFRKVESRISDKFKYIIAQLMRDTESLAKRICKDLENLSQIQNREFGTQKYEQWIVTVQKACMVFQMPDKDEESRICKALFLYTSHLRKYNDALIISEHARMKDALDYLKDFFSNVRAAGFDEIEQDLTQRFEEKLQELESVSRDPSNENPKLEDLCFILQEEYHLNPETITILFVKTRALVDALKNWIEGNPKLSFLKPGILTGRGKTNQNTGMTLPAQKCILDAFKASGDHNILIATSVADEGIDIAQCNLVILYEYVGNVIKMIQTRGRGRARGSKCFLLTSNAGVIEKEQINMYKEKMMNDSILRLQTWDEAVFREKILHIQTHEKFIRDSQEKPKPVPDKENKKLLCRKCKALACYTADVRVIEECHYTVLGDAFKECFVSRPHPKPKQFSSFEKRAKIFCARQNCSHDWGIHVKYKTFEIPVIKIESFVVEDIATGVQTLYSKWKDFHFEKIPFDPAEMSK

RIG-I (full-length) [2] = target: T1, RIG-I (full-length); assay: EMSA; EC50 over all constructs 2.28-7.31 pmol, individual value in figure only; high signaling
RIG-I (full-length) [3] = target: T1, RIG-I (full-length); assay: footprint; limited trypsin proteolysis, RD and helicase+CARDs protected; AMP-PNP
RIG-I (full-length) [4] = target: T1, RIG-I (full-length); assay: EMSA; no binding at 0-10 pmol RIG-I; limited RD protection in trypsin assay; details: stem-loops
RIG-I (full-length) [5] = target: T1, RIG-I (full-length); assay: footprint; limited trypsin proteolysis, RD and helicase+CARDs protected; EMSA not possible
Method: RIG-I is maintained in an auto-repressed conformation in uninfected cells where the CARDs interact with either the C-terminal repressor domain (RD), the helicase insertion domain (Hel2i), or both domains. […] To further assess RNA interactions with RIG-I, and to determine how HCV PAMP RNA interacts with the helicase domain and RD of RIG-I, limited-trypsin proteolysis of RIG-I/RNA complexes were conducted for nine RNA constructs selected to represent a range of PAMP activity (FIG. 3). RIG-I is highly sensitive to trypsin proteolysis in the absence of PAMP RNA; however, upon binding to an RNA ligand RIG-I undergoes conformational changes that protect the RD and other RNA-bound domains from trypsin digestion.
Various amounts of RNA (0-10 pmol) were mixed with 30 pmol purified RIG-I protein, 2 μl of 5× reaction buffer (20 mM Tris-HCl, pH 8.0; 1.5 mM MgCl₂; 1.5 mM DTT; 70 mM KCl), 0.67 μl AMP-PNP (10 mg/ml), and nuclease-free water up to 10 μl total volume. Reactions were incubated for 5 minutes at room temperature. […] SDS-PAGE Laemmli sample buffer (Bio-Rad) was then added to the samples and reaction products were analyzed by SDS-PAGE followed by silver stain using the SilverQuest silver staining kit (Invitrogen) as per the manufacturer's instructions.

B1: X-region-U34 (ssRNA)
RNA: GGGUGGCUCCAUCUUAGCCCUAGUCACGGCUAGCUGUGAAAGGUCCGUGAGCUUUUUUUUUUUUUUUUUUUUUUUUUUUUUUUUUUCGCUUGACUGCAGAGAGUGCUGAUACUGGCCUCUCUGCAGAUCAAGU
modifications: 5'-triphosphate
In the case of B1, the EC50 (RIG-I (full-length) [1]) is reported as < 8 pmol.

B2: Con1 pU/UC (ssRNA)
RNA: GGCCAUCCUGUUUUUUUCCCUUUUUUUUUUUCUUUUUUUUUUUUUUUUUUUUUUUUUUUUUUUUUUCUCCUUUUUUUUUCCUCUUUUUUUCCUUUUCUUUCCUUU
modifications: 5'-triphosphate; three G at 5' end
B2: binds (RIG-I (full-length) [2]).

B3: JFH1 pU/UC (ssRNA)
RNA: ACUGUUCCUUUUUUUUUUUUUUUUUUUUUUUUUUUUUUUUUUUUUUUUUUUCUUUUUUUUUUUUUUCCCUCUUUCUUCCCUUCUCAUCUUAUUCUACUUUCUUUCUU
modifications: 5'-triphosphate; three G at 5' end
B3: binds (RIG-I (full-length) [3]).

B4: poly-U 62-C (ssRNA)
RNA: UUUUUUUUUUUUUUUUUUUUUUUUUUUUUUUUUUUUUUUUUUUUCUUUUUUUUUUUUUUUUU
modifications: 5'-triphosphate; three G at 5' end
B4: binds (RIG-I (full-length) [3]).

B5: U17core (ssRNA)
RNA: GGCCAUCCUGUUUUUUUCCCUUUUUUUUUUUCUUUUUUUUUUUUUUUUUCUCCUUUUUUUUUCCUCUUUUUUUCCUUUUCUUUCCUUUCCCCCCCCCCCCCCCCC
modifications: 5'-triphosphate; three G at 5' end
B5: binds (RIG-I (full-length) [3]).

B6: X-region (ssRNA)
RNA: GGUGGCUCCAUCUUAGCCCUAGUCACGGCUAGCUGUGAAAGGUCCGUGAGCCGCUUGACUGCAGAGAGUGCUGAUACUGGCCUCUCUGCAGAUCAAGU
modifications: 5'-triphosphate
B6: no binding (RIG-I (full-length) [4]).

B7: poly-U 62 (ssRNA)
RNA: B4 RNA with C45U
modifications: 5'-triphosphate; three G at 5' end
B7: binds (RIG-I (full-length) [5]).
